Laboratory results as given in PMC6849719, “Characterization of the first naturally thermostable terpene synthases and development of strategies to improve thermostability in this family of enzymes” (The Febs Journal, 2017).

B1: Rcas_0622 (Roseiflexus castenholzii DSM 13941) (protein)
chain: MDQDYRARLVYPFSGAISPHADIVDQATLAWAAMFGLLTDSLRHKSRRLQYGLLAARAYPRADREMLQIAADWIAWLFFMDDQCDETGIGRDLQRMIALHERFLAILDGATPEAHDCALTYALADLRRRLALRAPDNWLRRFSEHVRLYFTANRWETVNRQRGATPNVATYCAARLFSGAVYACFDLIELAEQIELPFYARHHSIVQQLEQAANNIICWCNDVLSYPKEMQHGDRHNLVLVIQGEHQCSLPEAIDRALDLHAREVATFVRKRTCVPYFDAAVNTALEKYVTGLQFWICANRDWSLTATRYAPTHKSQEMVMAVAQQ
notes: full length, N-terminal His6 tag (pET28a, NheI-EcoRI), codon-optimised gene, E. coli BL21(DE3); ~40 kDa

Key:
[1] = tested on: T1, CC(C)=CCC/C(C)=C/CC/C(C)=C/CO[P@@](=O)(O)OP(=O)(O)O; assay: purified protein; format: biochemical, Roseiflexus sp. RS-1; settings: 65 °C, 10 mM MgCl2, TS buffer (MES/Tris/CAPS, 100 mM NaCl), 1 μM enzyme, FPP 1.2-92 μM, commercial ammonium salt
T1 construct: full length (326 residues), N-terminal His6 tag (pET28a, NheI-EcoRI), codon-optimised gene, E. coli BL21(DE3); ~40 kDa

purified protein = substrate: CC(C)=CCC/C(C)=C/CC/C(C)=C/CO[P@@](=O)(O)OP(=O)(O)O; assay: purified protein; format: biochemical, Roseiflexus castenholzii; settings: 65 °C, 10 mM MgCl2, TS buffer (MES/Tris/CAPS, 100 mM NaCl), 1 μM enzyme, FPP 1.2-92 μM, commercial ammonium salt

| Molecule | Km [1] [µM] | kcat [1] [s⁻¹] | Km (purified protein) [µM] | kcat (purified protein) [s⁻¹] |
| --- | --- | --- | --- | --- |
| RoseRS_3509 (Roseiflexus sp. RS-1) | 87 ± 31 | 0.95 ± 0.29 | – | – |
| B1 | – | – | 5.9 ± 2.0 | 0.09 ± 0.008 |
